# According to the nanobody polyreactivity screen of Harvey et al. (2022):
# Test: yeast display, Sf9 membrane polyspecificity reagent, FACS + sequencing; frameworks hold sequencing errors
# Procedure, shortened: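 Synthetic nanobody libraries on Saccharomyces cerevisiae BJ5465 were galactose-induced for 36–48 hours, stained 1 hour at 4 °C with 10% biotinylated, detergent-solubilized Sf9 membrane reagent and enriched on streptavidin microbeads. FACS then separated cells into low and high (top ~1%) gates by anti-HA (expression) and streptavidin (reagent binding) fluorescence. Genes were colony-PCR amplified, MiSeq 2 × 250 sequenced and CDR-length filtered. A clone's polyreactivity label is that of its gate of origin.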
row,Sequence,polyreactivity (PSR sort gate)
1,QVQLVESGGGLVQAGGSLRLSCAASGSTIGLNAMGWYIQEPGKEREFVAAISVSSGNKYYADSVKGRFTISRDNAKNTVYLQMNSLKPEDTAVYYCAARPRSHYIAQYYYWGQGTHVTVSS,low polyreactivity
2,QVQLVESGGGLVQAGGSLSLSCAASGNTLYNYPMGSYRPAPGKERELVAAISLSGGSTYYADSVKGRFTISRDNAKNTVYLQMNSLKRVDTAVYYCDADIFYYSSSYGYWGQGTQVTVSS,low polyreactivity
3,QVQLVESGGGLVQAGGSLRLSCAASGSNFSRNTMGWYRQAPWKERELVAGISSSGSRTYYADSVKGRFTISRDNAKNTVYLLMNSLKPEDTAVYYCAAEHQRSRGRRYYIGYDYWGQGTQVTVSS,low polyreactivity
4,QVQLVESGGGLFQAGGTLRLSCASSGLIFSRYAMGWYRQSPGKEWELVAGISTSGGRTYYADSVKGRFTISRYNAKNTVYFQMNSLKPEDTAVYYCAAQFKYRQINSYLLGDYWGQGTQVTVSS,high polyreactivity
5,QVQLQETGGGLFQAGVSLRLSCATSGSIFWGNAMGWYRQSPGKDRELVAAISWGGGRTYYADSVKGRFTISRDNAKITVYLQINSLKPEDTAVYSCNTRYPYVVSTGYDYWGQGTQVTVSS,high polyreactivity
6,QVQLVESGGGLVQAGGSLRVSCAASGRIFKSNAMGWYRPAPGKERELVASSTASGGRTYYADSVKGRFTISRDNAKNTVYLQMNSLKPEDTAVYYCAAGRPFSKYGYWGQGTQVTVTS,high polyreactivity
7,QVQLVESGGGLVQAGGSLRLSCAASVFTFTKYAMGWYRQAPGKERELVAAITRRGGRTYYADSVKGRFTISRDNAKNTVYLQMNSLKPEDTAVYYFNADIIWGSVSNGSEYDYWGQGTQVTVSS,high polyreactivity
8,QVQLVESGGGLVQAGGSLRLSCAASGFTFRAYAMGWYRQAPGKERELVAAISTGGGSTYYADSVKGRFTISRDNEKNTVYLQMNSLKPEDTAVYYCNALPQRRYYYWGQGTQVTVSS,high polyreactivity
9,QVQLVESGGGLVQAGGSLRLSCAASGRTYSYYAMGSYRQAPGKERELVAAITTSGGSTYYADSVKGRFTISRDNAKNTVYLQMNSLKPEDTAVYYCNALSSGVYLYDYWGQGTQVTVSS,high polyreactivity
10,QVQLVESGGGLVQAGGSLRLSCAASGLIFYVYAMGWYRQAPGKERELVAAIRGSGARTYYADSVKGRFTISRDNAKNTVYLQMNSLKPEDTAVYYCNARQRYRPSYDYWGQGTQVTVSS,high polyreactivity
11,QVQLVESGGGLVQAGGSLRLSCAASGSTFAYYAMGWYRQAPGKERELVAAITSSGGSTYYADSVKGRFTISRDNAKNTVYLQMNSLKPEDTAVYYCNARYRRKSWRPFDYWGQGTQVTVSS,high polyreactivity
12,QVQLVESGGGLVQAGGSLRLSCAASGFTFTGNAMGWYRQAPGKERELVAAISRSGGSTFYADSVKGRFTISRDNAKNTVYLQMNSLKPEDTAVYYCAARRRTLNYLYDYWGQGTQVTVSS,high polyreactivity
13,QVQLVESGGGLVQAGGSLRLSCAASGITFHRYDMGWYRQAPGKERELVADITWSGGSTYYADSVKGRFTISRDNAKNTVYLQMNSLKPEDTSVYYCAADASTYTYTPYDYWGQGTQVTVSS,low polyreactivity
14,QVQLVESGGGLVQAGASLRLSCAASGSTLSYAMGWYRQAPGKERELVAAISRSGGSTYYADSVKGRFTISRDNAKNTVYLLMNSLKPEDTAVYYCAADPYPSYANGGYYWGQGTQVTVSS,low polyreactivity
15,QVQLVESGGGLVQAGGSLRLSCASSGRNFTRNTMGWYRQAPGKERELVAAISGRGGSTYYADSVKGRFTISRDNAMKTVYLQMNSLKPEDTAVDYCAADGVYRGGYDYWGQGTQVTVSS,high polyreactivity
16,QVQLVESGGGLVQAGGSLRLSCAASGCIFYPYAMGWYRQAPGKERELVAAITYSGGSTYADSVKGRFTISRDNAKNTVYLQMNSLKPEDTAVYYCNAKFYFYGGTYIVKYDYWGQGTQVTVSS,high polyreactivity

row,Sequence,polyreactivity (PSR sort gate)
1,QVQLVESGGGLVQAGGSLRLSCAASGRTFRLYAMGWYRQAPGKVRELGAAITRGGRTNYADSVKGRFTISRDNAKNTVYLQMNSLKPEDTALYYCAARYVERHTDYYYWGQGTQVTVSS,low polyreactivity
2,QVQLVESGGGLVQAGGSLRLSCAASGLIFTYYAMGWYRQAPGKERELVAGISSGTNTNYADSVKGRFTISRDNAKNTVYLQMNSLKPEDTALYYCATTRGYQFVAYGYWGQGTQVTVSS,low polyreactivity
3,QVQLVESGGGFVQAGGSLSLSCAASGSTFIRYVMGWYRQAPGKERELVASITISVGSTYADSVKGRFTISRDNAKNTVYLQMNRMNPEDTAVYYCAASTLKDIYLWFRVDYWGQGTQVTVSS,low polyreactivity
4,QVQLVESGGGLVQAGGSLRLSCAASGSTFPINTMGWYRQAPGKERELVAAITHSGGRTYYADSVKGRFTISRVNAKNTVYLQMNSLKPEDTAVYYCNAVRYYAVRVSDGDYDYWGQGTQVTVSS,low polyreactivity
5,QVQLVESGGGLVQAGGSLRLSCAASGSTVGLYTMGSYRHAPGKEMELFAAISWSDGSTYYEDSVKGRFTISRDNAKNTVYLQMISLKPEDTAVYYCAAEFLYQQSSWEFDYWGQGTQVTVSS,low polyreactivity
6,QDQLVESGGGLVQAGGSLRLSCAASGRTISGYVMGWYIQAPGKERELVATINGSGASTYYADSVKGRFTISRDNAKNTVYLQMNSLKPEDTAVYYCAAKRYRPKYEYYYWGQGTQVTVSS,high polyreactivity
7,QVQLVESGGGLVQAGGSLRISCAASGITFRYYAMGWSIQAPGKERELVAAITCNGGGTYADSVKGRFTISRDNAKYTVYLEMNSLKPEDTAVYSCSADYGRRWGYDYWGQGTQVTVSS,low polyreactivity
8,QVQLVESGGGLVQAGGSLRLSCAASGFTFWVYAMGWYRQAPGKEREFVAAISGIGDDTNYADSVKGRFTISRDNAKNTVYLQMNSLKPEDTAVYYCATVALRYYGVTEFDYWGQGTQVTVSS,high polyreactivity
9,QVQLVESGGGLVQAGGSLRLSCAASGFTSCDNDMGWYRQAPGKERELVAAISRGGSTNYADSVKGRFTISRDNAKNTVYLQMNSLKPEDTAVYYCATAAVTPVWYDYWGKGTQVTVSS,low polyreactivity
10,QVQLVESGGGLVQAGGSLRLSCAASGRTFRHDGMGWYRQAPGKERELVAAISRSGGRTYYADSVKGRFTISRDNAKNTVYLQMNSLKPEDTAVYYCNAPYDVTTYAFDYWGQGTQVTVSS,high polyreactivity
11,QDQLVESGGGLVQAGGSLRLSCAASALIFSLNAMGWYRQAPGTERELVAAISSDDSTYYADSVKGRFTISRDNAKNTVYLQMNSLKPEDTAVYYCAAVQLVPGYVDSNDYYWGQGTQVTVSS,low polyreactivity
12,QVQLVESGGGLVQAGGSLRLSCAASGSTFSQNAMGWYRQAPGKERELVAVISSSGGRTNYADSVKGRFTISRDNAKNTVYLQMNSLKPEDSAVYYCAKRLRVLYYYWGQGTQVTVSS,high polyreactivity
13,QVQLVESGGGLVQAGGSLRLSCAASGITFFRYTMGWYRQAPGKEREFVADISRSGDTTYYADSVKGRFTISRDNAKNSVYLQMNSLKPEDTAVYYCARLTRSGEYGYWGQGTQVTVSS,high polyreactivity
14,QVQLVESGGGVVQAGGSLRLSCAASGRTIDPKAMGWYRQAPGKERELVAAITRTGVRTYYADSVKGRFTISRDNAKNTVYLQLNILKPEYTAVYYCNRYGARSNDYWGQGTQVSVSS,low polyreactivity
15,QVQLVESGGGLVQAGGSLRLSCAASGSIFYPYAMGWYRPAPGTERELVASISWSGGSTRYADSVKGRFTISRDNAKNSVYLQMNSLKPEDTAVYYCNAGYRTRHISLYDYWGQGTQVTVSS,high polyreactivity
16,QVQLVESGGGIVQAGGILRLSSAASGRTFYSYTMGWSRQEPGKERELVAAINRGGSTYYADSVKGRFTISRDKAKNTVYLQMNSLKPEDTEVYYCAVGYAHSSNRRYYYKKTHGYWGQGTQVTVSS,low polyreactivity
